Key:
[1] = molecular target: bovine thyroglobulin (bovine) (UniProt P01267); assay: phage ELISA, 200 ug/ml thyroglobulin coated
[2] = molecular target: fd h-PDGFB-R phage (extracellular domain of the human receptor for PDGF isoform BB displayed on fd phage) (human; bacteriophage fd) (UniProt P09619); assay: displacement of 125I-PDGF-BB from receptor phage, immunoprecipitation
fd h-PDGFB-R phage (extracellular domain of the human receptor for PDGF isoform BB displayed on fd phage) (human; bacteriophage fd), sequence (P09619 33-531, form in doubt): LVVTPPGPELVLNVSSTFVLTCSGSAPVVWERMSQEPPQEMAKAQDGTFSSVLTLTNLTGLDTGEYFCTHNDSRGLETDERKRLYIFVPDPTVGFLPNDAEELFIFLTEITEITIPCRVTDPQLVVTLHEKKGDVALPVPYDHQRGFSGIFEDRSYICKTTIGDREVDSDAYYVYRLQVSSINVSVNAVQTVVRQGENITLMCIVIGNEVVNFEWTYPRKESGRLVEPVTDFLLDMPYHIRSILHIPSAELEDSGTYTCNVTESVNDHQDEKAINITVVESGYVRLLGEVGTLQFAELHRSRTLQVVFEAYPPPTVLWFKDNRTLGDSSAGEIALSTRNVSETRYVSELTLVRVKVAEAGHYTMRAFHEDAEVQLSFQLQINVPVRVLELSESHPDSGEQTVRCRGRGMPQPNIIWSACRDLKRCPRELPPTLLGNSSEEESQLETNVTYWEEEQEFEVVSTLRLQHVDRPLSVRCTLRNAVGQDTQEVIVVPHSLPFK

bovine thyroglobulin (bovine), sequence (P01267 20-2769 limits assumed): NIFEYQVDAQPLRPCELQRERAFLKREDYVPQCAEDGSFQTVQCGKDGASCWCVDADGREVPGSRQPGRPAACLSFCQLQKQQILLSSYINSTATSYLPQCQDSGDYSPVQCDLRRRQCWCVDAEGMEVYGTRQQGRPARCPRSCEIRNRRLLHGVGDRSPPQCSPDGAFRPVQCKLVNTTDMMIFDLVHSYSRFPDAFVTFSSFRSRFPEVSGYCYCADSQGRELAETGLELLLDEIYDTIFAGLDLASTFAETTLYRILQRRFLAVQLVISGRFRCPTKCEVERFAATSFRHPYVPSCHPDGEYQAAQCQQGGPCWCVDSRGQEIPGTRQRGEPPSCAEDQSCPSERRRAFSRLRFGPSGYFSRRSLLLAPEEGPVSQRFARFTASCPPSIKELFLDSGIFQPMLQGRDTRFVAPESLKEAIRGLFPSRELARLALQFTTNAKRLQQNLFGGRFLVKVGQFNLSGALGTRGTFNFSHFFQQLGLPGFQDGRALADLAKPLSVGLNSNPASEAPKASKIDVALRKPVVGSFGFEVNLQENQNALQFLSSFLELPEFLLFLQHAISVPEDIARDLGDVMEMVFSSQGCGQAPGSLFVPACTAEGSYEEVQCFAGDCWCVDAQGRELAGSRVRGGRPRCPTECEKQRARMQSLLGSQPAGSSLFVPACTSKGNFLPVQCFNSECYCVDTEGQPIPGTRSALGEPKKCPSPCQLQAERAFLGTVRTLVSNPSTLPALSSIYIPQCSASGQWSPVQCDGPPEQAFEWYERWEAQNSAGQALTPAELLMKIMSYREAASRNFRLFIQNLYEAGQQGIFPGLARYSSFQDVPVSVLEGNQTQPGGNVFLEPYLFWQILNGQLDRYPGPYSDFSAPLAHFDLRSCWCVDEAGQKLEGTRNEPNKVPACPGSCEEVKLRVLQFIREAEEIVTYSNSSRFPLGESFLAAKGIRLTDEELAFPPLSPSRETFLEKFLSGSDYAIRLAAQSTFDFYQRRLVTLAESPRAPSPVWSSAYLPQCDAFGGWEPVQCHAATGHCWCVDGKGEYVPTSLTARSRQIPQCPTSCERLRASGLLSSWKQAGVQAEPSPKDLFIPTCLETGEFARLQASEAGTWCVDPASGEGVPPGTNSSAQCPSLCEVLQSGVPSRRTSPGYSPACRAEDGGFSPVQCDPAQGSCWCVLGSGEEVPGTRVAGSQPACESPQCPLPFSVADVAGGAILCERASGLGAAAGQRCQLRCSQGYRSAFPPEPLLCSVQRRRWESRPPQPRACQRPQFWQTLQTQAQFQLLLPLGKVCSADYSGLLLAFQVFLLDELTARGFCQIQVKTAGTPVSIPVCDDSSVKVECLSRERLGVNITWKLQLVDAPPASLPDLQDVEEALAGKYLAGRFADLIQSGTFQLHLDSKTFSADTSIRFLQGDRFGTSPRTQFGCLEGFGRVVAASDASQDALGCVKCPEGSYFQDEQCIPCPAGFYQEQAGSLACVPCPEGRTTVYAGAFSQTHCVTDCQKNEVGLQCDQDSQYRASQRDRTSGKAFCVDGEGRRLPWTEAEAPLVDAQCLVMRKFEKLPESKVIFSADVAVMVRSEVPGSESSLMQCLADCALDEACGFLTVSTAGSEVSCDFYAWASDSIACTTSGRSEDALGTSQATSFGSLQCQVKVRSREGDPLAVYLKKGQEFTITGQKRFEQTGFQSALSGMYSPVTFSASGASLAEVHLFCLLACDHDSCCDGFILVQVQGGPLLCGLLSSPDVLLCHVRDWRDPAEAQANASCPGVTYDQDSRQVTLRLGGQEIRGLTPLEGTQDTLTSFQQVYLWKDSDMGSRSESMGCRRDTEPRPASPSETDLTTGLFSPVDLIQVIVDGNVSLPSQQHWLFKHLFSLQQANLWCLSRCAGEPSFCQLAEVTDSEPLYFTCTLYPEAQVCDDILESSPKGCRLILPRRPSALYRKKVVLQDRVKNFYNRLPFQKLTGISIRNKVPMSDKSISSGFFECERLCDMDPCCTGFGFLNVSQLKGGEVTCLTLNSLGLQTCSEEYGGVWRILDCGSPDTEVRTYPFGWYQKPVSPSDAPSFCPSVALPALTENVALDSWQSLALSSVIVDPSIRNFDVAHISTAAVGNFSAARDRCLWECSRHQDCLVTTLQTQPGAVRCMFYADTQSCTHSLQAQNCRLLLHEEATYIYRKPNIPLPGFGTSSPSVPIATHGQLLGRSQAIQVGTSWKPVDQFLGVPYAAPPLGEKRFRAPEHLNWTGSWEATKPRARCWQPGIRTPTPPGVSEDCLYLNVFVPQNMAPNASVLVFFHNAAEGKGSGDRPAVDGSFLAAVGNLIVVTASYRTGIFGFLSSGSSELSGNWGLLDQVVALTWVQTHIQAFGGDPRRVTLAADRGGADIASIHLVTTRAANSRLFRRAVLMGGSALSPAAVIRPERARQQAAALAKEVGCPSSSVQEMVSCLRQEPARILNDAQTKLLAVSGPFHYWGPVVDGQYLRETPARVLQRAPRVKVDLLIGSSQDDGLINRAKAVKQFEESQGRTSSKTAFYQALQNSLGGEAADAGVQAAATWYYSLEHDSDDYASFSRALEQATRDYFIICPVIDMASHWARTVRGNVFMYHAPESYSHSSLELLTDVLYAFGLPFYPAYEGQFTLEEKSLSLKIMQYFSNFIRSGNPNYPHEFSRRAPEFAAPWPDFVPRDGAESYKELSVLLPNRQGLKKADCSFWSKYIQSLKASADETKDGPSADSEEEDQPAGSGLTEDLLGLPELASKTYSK

Substance	O.D. in ELISA [1]	concentration at which binding of 125I-PDGF-BB was reduced to the control level [2]
pCAT-3 non-recombinant vector phagemid particles (from UniProt P03661 19-424)	0.07 O.D.	
unlabelled PDGF-BB (from UniProt P01127 82-190; P01127 82-190) (ligand)		50 nM

Source: US20070148774A1
